Assay results reported in patent US20240247080A1, “GLP1/GIP/NPY2 RECEPTOR TRIPLE AGONISTS” (Boehringer Ingelheim International GmbH, priority 2022, published 2024).
Starred links: 1 amine or outer side, 2 acyl side, 3 side chain; linkers in the order of their positions; H or OH if unused. Non-standard residues stand in square brackets, D forms with d. Groups on a side chain read outwards from the residue. No end group written: not given here. *: point of attachment. C20 diacid = O=C(O)CCCCCCCCCCCCCCCCCCC(=O)*; C18 diacid = O=C(O)CCCCCCCCCCCCCCCCC(=O)*; γGlu = O=C(O)[C@H](CCC(=O)[*:2])N[*:1]; εLys = N[C@@H](CCCCN[*:1])C(=O)[*:2]; AEEA = NCCOCCOCC(=O)O; Aib = CC(C)(N)C(=O)O

T1: human GIP receptor (human, UniProt P48546 22-466)
T1 sequence (looked up): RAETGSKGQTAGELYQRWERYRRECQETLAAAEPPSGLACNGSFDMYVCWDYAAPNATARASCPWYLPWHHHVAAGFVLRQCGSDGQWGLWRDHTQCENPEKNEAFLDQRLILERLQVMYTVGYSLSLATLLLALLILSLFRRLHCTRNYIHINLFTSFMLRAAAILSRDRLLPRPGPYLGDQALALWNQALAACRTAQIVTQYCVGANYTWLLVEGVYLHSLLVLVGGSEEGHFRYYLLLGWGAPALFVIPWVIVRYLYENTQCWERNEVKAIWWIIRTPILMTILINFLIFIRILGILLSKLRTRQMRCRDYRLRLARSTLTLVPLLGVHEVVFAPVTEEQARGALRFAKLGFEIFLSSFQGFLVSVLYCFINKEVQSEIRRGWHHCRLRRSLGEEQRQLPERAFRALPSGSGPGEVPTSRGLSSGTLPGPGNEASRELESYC

T2: human neuropeptide Y2 (NPY2) receptor (human, UniProt P49146 1-381)
T2 sequence (looked up): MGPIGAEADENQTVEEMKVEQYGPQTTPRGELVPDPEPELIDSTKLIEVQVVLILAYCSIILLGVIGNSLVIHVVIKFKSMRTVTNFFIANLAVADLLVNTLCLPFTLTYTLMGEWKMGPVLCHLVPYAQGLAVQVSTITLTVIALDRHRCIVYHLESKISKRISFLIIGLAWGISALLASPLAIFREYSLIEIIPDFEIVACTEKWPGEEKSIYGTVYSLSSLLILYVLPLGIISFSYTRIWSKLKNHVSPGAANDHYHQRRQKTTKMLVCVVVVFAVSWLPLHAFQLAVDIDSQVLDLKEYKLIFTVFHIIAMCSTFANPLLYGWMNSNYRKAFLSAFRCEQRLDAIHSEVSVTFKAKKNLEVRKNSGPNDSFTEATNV


Key:
Test in all cases: cell-based or functional assay
human GLP-1 receptor = human GLP-1 receptor (human, UniProt P43220 24-463)
human GIP receptor = molecular target: T1, human GIP receptor
[1] = molecular target: T2, human neuropeptide Y2 (NPY2) receptor

Row | Binder | EC50, CreLuc assay, 0.5% hP (human GLP-1 receptor) | EC50, CreLuc assay, 100% hP (human GLP-1 receptor) | EC50, CreLuc assay, 0.5% hP (human GIP receptor) | EC50, CreLuc assay, 100% hP (human GIP receptor) | EC50, CreLuc assay, 0.5% hP [1] | EC50, CreLuc assay, 100% hP [1]
1 | Y[Aib]EGTFTSDYSI[Aib]LEKQAQ[Aib]EFVEWLIK([AEEA-AEEA-γGlu-γGlu-γGlu-γGlu-C18 diacid])GGPSSPASLRHYYNWLTRQRY-NH2 (also: TFA salt) [Compound 56] | 0.25 nM | 8.97 nM | 0.27 nM | 1.02 nM | 27.2 nM | 48.8 nM
2 | Y[Aib]EGTFTSDYSI[Aib]LEKQAQ[Aib]AFVQWLIKGGPESGASLRHYYNWLTRQRY-NH2 (not fully specified (residue 28); also: TFA salt) [Compound 55] | 0.09 nM | 4.17 nM | 0.12 nM | 0.82 nM | 16 nM | 53.4 nM
3 | Y[Aib]EGTFTSDYSI[Aib]LEKQAE[Aib]AFVQWLIKGGPSEPASLRHYYNWLTRQRY-NH2 (not fully specified (residue 28); also: TFA salt) [Compound 54] | 0.22 nM | 7.71 nM | 0.24 nM | 1.4 nM | 14 nM | 60.1 nM
4 | YXEGTFTSDYSIXLEKQAEXAFVQWLIKGGPSSGASLRHYYNWLTRQRY (Aib at 2, 13, 20; K28 side chain: C18DA-gGlu-gGlu-gGlu-gGlu-gGlu-gGlu-eLys; C-terminal NH2) [Compound 51] | 0.15 nM | 4.66 nM | 0.23 nM | 1.37 nM | 13.8 nM | 42.2 nM
5 | YXEGTFTSDYSIXLEKQAQXAFVQWLIKGGPESGASLRHYYNWLTRQRY (Aib at 2, 13, 20; K28 side chain: C18DA-gGlu-gGlu-gGlu-gGlu-gGlu; C-terminal NH2) [Compound 53] | 0.09 nM | 3.46 nM | 0.13 nM | 1.38 nM | 13.2 nM | 50.6 nM
6 | Y[Aib]EGTFTSDYSI[Aib]LEEEAQ[Aib]AFVQWLIK([εLys-εLys-γGlu-γGlu-γGlu-γGlu-γGlu-C20 diacid])GGPSSGASLRHYYNWLTRQRY-NH2 (also: TFA salt) [Compound 7] | 0.13 nM | 1.58 nM | 0.23 nM | 0.63 nM | 16.9 nM | 36.7 nM
7 | Y[Aib]EGTFTSDYSI[Aib]LEKQAQ[Aib]AFVQWLIK([AEEA-AEEA-Glu-Glu-Glu-Glu-C18 diacid])GGPESGASLRHYYNWLTRQRY-NH2 (also: TFA salt) [Compound 52] | 0.09 nM | 3.17 nM | 0.12 nM | 0.65 nM | 18.7 nM | 93.5 nM
8 | Y[Aib]EGTFTSDYSI[Aib]LEKQAQ[Aib]AFVQWLIK([AEEA-AEEA-γGlu-γGlu-γGlu-γGlu-C18 diacid])GGPEEPASLRHYYNWLTRQRY-NH2 (also: TFA salt) [Compound 57] | 0.14 nM | 6.45 nM | 0.18 nM | 1.17 nM | 9.74 nM | 33.6 nM

Further lines, results first:

Row | EC50, CreLuc assay, 0.5% hP (human GLP-1 receptor) | EC50, CreLuc assay, 100% hP (human GLP-1 receptor) | EC50, CreLuc assay, 0.5% hP (human GIP receptor) | EC50, CreLuc assay, 100% hP (human GIP receptor) | EC50, CreLuc assay, 0.5% hP [1] | EC50, CreLuc assay, 100% hP [1] | Binder
9 | 2.65 nM | 49.3 nM | 1.03 nM | 15.7 nM | 10.9 nM | 24.2 nM | Y[Aib]EGTFTSDYSI[Aib]LEKQAQ[Aib]AFVEWLIK([γGlu-γGlu-γGlu-γGlu-γGlu-γGlu-C20 diacid])GGGSEYVSLRHYYNWLTRQRY-NH2 (also: TFA salt) [Compound 65]
10 | 0.11 nM | 3.95 nM | 0.36 nM | 0.56 nM | 6.25 nM | 37.6 nM | Y[Aib]EGTFTSDYSI[Aib]LEKQAQ[Aib]AFVQWLIK([εLys-γGlu-γGlu-γGlu-γGlu-γGlu-C20 diacid])GGPESGASLRHYYNWLTRQRY-NH2 (also: TFA salt) [Compound 61]
11 | 0.78 nM | 9.23 nM | 0.48 nM | 5.35 nM | 13.6 nM | 40.5 nM | YXEGTFTSDYSIXLEKQAQXAFVEWLIKGGPRYYASLRHYYNWLTRQRY (Aib at 2, 13, 20; K28 side chain: C20DA-gGlu-gGlu-gGlu-gGlu-gGlu-gGlu-eLys; C-terminal NH2) [Compound 62]
12 | 0.29 nM | 11.2 nM | 0.18 nM | 2.37 nM | 17 nM | 95.3 nM | Y[Aib]EGTFTSDYSI[Aib]LEKQAQ[Aib]AFVEWLIKGGPESPASLRHYYNWLTRQRY-NH2 (not fully specified (residue 28); also: TFA salt) [Compound 64]
13 | 0.08 nM | 1.69 nM | 0.33 nM | 0.35 nM | 7.43 nM | 23.1 nM | Y[Aib]EGTFTSDYSI[Aib]LEKQAQ[Aib]AFVQWLIK([εLys-γGlu-γGlu-γGlu-γGlu-γGlu-C18 diacid])GGPESGASLRHYYNWLTRQRY-NH2 (also: TFA salt) [Compound 60]
14 | 0.39 nM | 8.81 nM | 0.49 nM | 5.75 nM | 10.8 nM | 29.9 nM | Y[Aib]EGTFTSDYSI[Aib]LEKQAQ[Aib]AFVQWLIKGGPSYYASLRHYYNWLTRQRY-NH2 (not fully specified (residue 28); also: TFA salt) [Compound 59]
15 | 0.08 nM | 3 nM | 0.13 nM | 0.89 nM | 15.2 nM | 74.3 nM | Y[Aib]EGTFTSDYSI[Aib]LEKQAQ[Aib]AFVQWLIK([εLys-Glu-Glu-Glu-Glu-Glu-C18 diacid])GGPESGASLRHYYNWLTRQRY-NH2 (also: TFA salt) [Compound 63]
16 | 0.05 nM | 2 nM | 0.24 nM | 0.31 nM | 10.2 nM | 22.8 nM | Y[Aib]EGTFTSDYSI[Aib]LEKQAQ[Aib]AFVQWLIK([AEEA-AEEA-γGlu-γGlu-γGlu-γGlu-C18 diacid])GGPESGASLRHYYNWLTRQRY-NH2 (also: TFA salt) [Compound 58]
